Experimental data as given in the supplement of paper PMC12783771.
± gives the standard deviation of the averaged measurements.

B1: library; numbered along this chain (parent)
chain: MNIQIGELAKRTACPVVTIRFYEQEGLLPPPGRSRGNFRLYGEEHVERLQFIRHCRSLDMPLSDVRTLLSYRKRPDQDCGEVNMLLDEHIRQVESRIGALLELKHHLVELREACSGARPAQSCGILQGLSDCVCDTRGTTAHPSD

Columns and labels:
[1] = variants of: B1; experiment: sfGFP reporter fluorescence (15 h) (µM FITC); higher = higher leak; details: library round: Round 0; ligand: none
Procedure, shortened: (§1)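 Readout was endpoint sfGFP fluorescence, converted to µM FITC through standard curves. Reactions were 1 μL of BL21 Star (DE3) PANOx-SP extract with pPbrR-sfGFP reporter, 30 μg/mL GamS and linear PbrR templates normalized to 5 nM, containing 1 µM lead chloride, 30 µM zinc acetate or no metal. Incubation lasted 15 hr at 30 °C, with up to three biological replicates.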

[2] = variants of: B1; experiment: sfGFP reporter fluorescence (15 h) (µM FITC); higher = stronger transcriptional activation; details: library round: Round 0
Procedure, shortened: as §1

| Variant | sfGFP reporter fluorescence [1] | sfGFP reporter fluorescence ([2]; ligand: 1 µM Pb) | sfGFP reporter fluorescence ([2]; ligand: 30 µM Zn) |
| --- | --- | --- | --- |
| M60L L107C G128M | 4.479 ± 0.028 | 4.98 ± 0.62 | 5.22 ± 0.29 |
| M60L L107C G128I | 2.19 ± 0.17 | 3.42 ± 0.14 | 2.98 ± 0.17 |
| P61N D64K | 0.232 ± 0.0052 | 0.762 ± 0.12 | 3.05 ± 0.076 |
| M60L P61N D64K | 0.611 ± 0.025 | 1.74 ± 0.19 | 3.74 ± 0.11 |
| I52A | 0.06341 ± 0.00052 | 0.0596 ± 0.0023 | 0.077 ± 0.0015 |
| P61N K104V L107C G128M | 0.584 ± 0.064 | 2.12 ± 0.083 | 3.41 ± 0.56 |
| P61N K104V L107C G128I | 0.289 ± 0.0057 | 1.306 ± 0.0026 | 2.66 ± 0.067 |
| M60L D64K K104V L107C | 3.73 ± 0.15 | 4.15 ± 0.39 | 3.44 ± 0.57 |
| M60L D64K K104V G128M | 3.37 ± 0.19 | 4.36 ± 0.31 | 3.8 ± 0.24 |
| M60L D64K K104V G128I | 2.23 ± 0.091 | 3.3 ± 0.69 | 4.17 ± 0.28 |
| P61N D64K K104V | 0.26 ± 0.0026 | 0.752 ± 0.037 | 2.41 ± 0.1 |
| M60L P61N K104V G128I | 0.148 ± 0.0083 | 0.448 ± 0.098 | 1.76 ± 0.23 |
| M60L P61N K104V G128M | 0.547 ± 0.013 | 1.69 ± 0.41 | 3.84 ± 0.1 |
| D64A L68S | 0.0623 ± 0.0021 | 0.0597 ± 0.0026 | 0.0803 ± 0.0036 |
| M60L D64K L107C G128M | 5.61 ± 0.24 | 4.82 ± 0.34 | 4.67 ± 0.83 |
| M60L D64K L107C G128I | 5.03 ± 0.22 | 4.57 ± 0.23 | 3.85 ± 0.9 |
| R56A | 0.0616 | 0.0616 ± 0.0026 | 0.1308 ± 0.00052 |
| C55F | 0.0634 ± 0.001 | 0.0674 ± 0.001 | 0.0876 |
| C55E | 0.061 ± 0.0013 | 0.06029 ± 0.00026 | 0.0607 ± 0.0013 |
| C55H | 0.0585 ± 0.00078 | 0.06139 ± 0.00026 | 0.0574 ± 0.00078 |
| C55S | 0.06029 ± 0.00026 | 0.066 ± 0.001 | 0.203 ± 0.019 |
| C55G | 0.0568 ± 0.0015 | 0.057 ± 0.00078 | 0.07 ± 0.0015 |
| C55L | 0.0608 ± 0.001 | 0.0702 ± 0.0013 | 0.173 ± 0.0091 |

| Variant | sfGFP reporter fluorescence [1] | sfGFP reporter fluorescence ([2]; ligand: 1 µM Pb) | sfGFP reporter fluorescence ([2]; ligand: 30 µM Zn) |
| --- | --- | --- | --- |
| C55Q | 0.0594 ± 0.001 | 0.0588 ± 0.0013 | 0.0585 ± 0.00078 |
| C55A | 0.0647 ± 0.0013 | 0.126 ± 0.013 | 1.28 ± 0.066 |
| C55T | 0.0577 ± 0.00078 | 0.0594 ± 0.0042 | 0.129 ± 0.0018 |
| C55D | 0.0608 ± 0.0021 | 0.061 ± 0.0018 | 0.0592 ± 0.00078 |
| C55V | 0.0629 ± 0.0029 | 0.0773 ± 0.0047 | 0.273 ± 0.0029 |
| C55Y | 0.0601 ± 0.0021 | 0.0623 ± 0.001 | 0.06011 ± 0.00052 |
| C55M | 0.0645 ± 0.0015 | 0.0733 ± 0.0026 | 0.139 ± 0.018 |
| C55P | 0.0596 ± 0.00078 | 0.0597 | 0.05846 ± 0.00026 |
| C55W | 0.0731 ± 0.0029 | 0.0935 ± 0.0015 | 0.136 ± 0.0083 |
| C55N | 0.0594 ± 0.0015 | 0.0583 ± 0.0015 | 0.057 ± 0.0034 |
| C55K | 0.0608 ± 0.0015 | 0.061 ± 0.0018 | 0.0607 ± 0.00078 |
| C55R | 0.0596 ± 0.0018 | 0.0592 ± 0.0013 | 0.0572 |
| C55I | 0.0583 ± 0.0026 | 0.0616 | 0.112 ± 0.0057 |
| D64K K104V G128M | 1.36 ± 0.059 | 2.78 ± 0.079 | 4.45 ± 0.11 |
| D64K K104V G128I | 0.711 ± 0.092 | 1.75 ± 0.096 | 4.36 ± 0.25 |
| M60L D64K K104V | 2.02 ± 0.17 | 4.2 ± 0.4 | 4.63 ± 0.11 |
| L58A | 0.0601 ± 0.001 | 0.05681 ± 0.00052 | 0.0563 ± 0.0049 |
| L58I | 0.05443 ± 0.00026 | 0.0546 ± 0.001 | 0.05864 ± 0.00052 |
| L58E | 0.0619 ± 0.001 | 0.0625 ± 0.0013 | 0.064 ± 0.0018 |
| L58N | 0.05644 ± 0.00052 | 0.05791 ± 0.00052 | 0.0548 ± 0.0023 |
| L58Q | 0.0596 ± 0.0018 | 0.05901 ± 0.00052 | 0.0711 ± 0.0021 |
| L58C | 0.05846 ± 0.00026 | 0.05772 ± 0.00026 | 0.06121 ± 0.00052 |
| L58H | 0.05901 ± 0.00052 | 0.0594 ± 0.0021 | 0.0656 ± 0.0036 |

| Variant | sfGFP reporter fluorescence [1] | sfGFP reporter fluorescence ([2]; ligand: 1 µM Pb) | sfGFP reporter fluorescence ([2]; ligand: 30 µM Zn) |
| --- | --- | --- | --- |
| L58R | 0.06139 ± 0.00026 | 0.0651 ± 0.0029 | 0.0662 ± 0.00078 |
| L58K | 0.0629 ± 0.0013 | 0.06908 ± 0.00026 | 0.0735 ± 0.0034 |
| L58Y | 0.0784 ± 0.0062 | 0.229 ± 0.011 | 0.606 ± 0.036 |
| L58P | 0.0594 ± 0.0015 | 0.0601 ± 0.001 | 0.0605 ± 0.001 |
| L58G | 0.0548 ± 0.00078 | 0.0548 ± 0.0013 | 0.052 ± 0.001 |
| L58M | 0.0583 | 0.0581 ± 0.00078 | 0.0748 ± 0.0015 |
| L58D | 0.0599 ± 0.0023 | 0.0623 | 0.0608 ± 0.0015 |
| L58F | 0.0592 ± 0.0018 | 0.0731 ± 0.0013 | 0.261 ± 0.027 |
| L58T | 0.0588 ± 0.0018 | 0.05864 ± 0.00052 | 0.05644 ± 0.00052 |
| L58S | 0.05717 ± 0.00052 | 0.0586 | 0.0563 ± 0.0013 |
| L58V | 0.0583 ± 0.001 | 0.0568 ± 0.0021 | 0.061 ± 0.0018 |
| L58W | 0.0629 ± 0.0034 | 0.0685 ± 0.0026 | 0.076 ± 0.0023 |
| M60L K104V G128I | 0.312 ± 0.017 | 1.27 ± 0.04 | 3.28 ± 0.16 |
| M60L K104V G128M | 0.69 ± 0.028 | 1.46 ± 0.085 | 2.91 ± 0.039 |
| M60L P61N G128M | 0.822 ± 0.13 | 1.91 ± 0.38 | 3.32 ± 0.64 |
| M60L P61N G128I | 0.436 ± 0.043 | 1.55 ± 0.032 | 3.7563 ± 0.0021 |
| M60G | 0.0561 ± 0.0015 | 0.05772 ± 0.00026 | 0.0588 ± 0.0013 |
| M60A | 0.0643 ± 0.0029 | 0.0619 ± 0.001 | 0.0713 ± 0.007 |
| M60S | 0.0601 | 0.0608 ± 0.001 | 0.0592 ± 0.00078 |
| M60K | 0.0605 ± 0.001 | 0.061 ± 0.0018 | 0.0625 ± 0.0029 |
| M60V | 0.0715 ± 0.0015 | 0.1459 ± 0.001 | 1.05 ± 0.012 |
| M60F | 1.94 ± 0.16 | 2.94 ± 0.1 | 2.92 ± 0.028 |
| M60D | 0.0616 ± 0.001 | 0.0619 ± 0.0015 | 0.063 ± 0.0015 |

| Variant | sfGFP reporter fluorescence [1] | sfGFP reporter fluorescence ([2]; ligand: 1 µM Pb) | sfGFP reporter fluorescence ([2]; ligand: 30 µM Zn) |
| --- | --- | --- | --- |
| M60N | 0.0616 ± 0.001 | 0.0607 ± 0.0018 | 0.061 ± 0.0013 |
| M60Q | 0.0603 ± 0.00078 | 0.0588 ± 0.0018 | 0.0614 ± 0.0013 |
| M60Y | 0.0621 ± 0.0013 | 0.0662 ± 0.0013 | 0.12 ± 0.00078 |
| M60T | 0.0601 ± 0.001 | 0.0621 ± 0.00078 | 0.0645 ± 0.001 |
| M60L | 0.1063 ± 0.00052 | 0.295 ± 0.035 | 2.8 ± 0.031 |
| M60W | 0.135 ± 0.0096 | 0.384 ± 0.026 | 0.926 ± 0.01 |
| M60R | 0.0614 ± 0.0034 | 0.0612 ± 0.001 | 0.0619 ± 0.0015 |
| M60I | 0.12 ± 0.0029 | 0.319 ± 0.03 | 2.58 ± 0.063 |
| M60C | 0.06029 ± 0.00026 | 0.06304 ± 0.00052 | 0.06615 ± 0.00026 |
| M60P | 0.0605 | 0.05974 ± 0.00052 | 0.05516 ± 0.00026 |
| M60H | 0.0623 ± 0.0015 | 0.0614 ± 0.00078 | 0.0638 ± 0.0015 |
| M60E | 0.107 ± 0.00052 | 0.463 ± 0.039 | 1.67 ± 0.012 |
| P61N L107C | 1.34 ± 0.084 | 2.4 ± 0.077 | 3.92 ± 0.019 |
| S63A | 0.0607 ± 0.00078 | 0.0733 ± 0.0026 | 0.725 ± 0.037 |
| M60L K104V L107C G128M | 2.296 ± 0.0044 | 4.53 ± 0.18 | 3.641 ± 0.033 |
| M60L K104V L107C G128I | 1.223 ± 0.006 | 3.59 ± 0.22 | 3.12 ± 0.6 |
| P61N D64K L107C G128I | 3.28 ± 0.15 | 4.88 ± 0.7 | 4.54 ± 0.044 |
| P61N D64K L107C G128M | 4.78 ± 0.1 | 5.3 ± 0.14 | 4.84 ± 0.18 |
| P61N D64K K104V G128M | 0.739 ± 0.021 | 1.592 ± 0.0036 | 3.375 ± 0.019 |
| P61N D64K K104V G128I | 0.32 ± 0.048 | 0.989 ± 0.27 | 2.48 ± 0.29 |
